# Reference: IntAct's records for PubMed 25893917
# B1: Twist-related protein 1 (Mus musculus), P26687 (parent)
# chain: MMQDVSSSPVSPADDSLSNSEEEPDRQQPASGKRGARKRRSSRRSAGGSAGPGGATGGGIGGGDEPGSPAQGKRGKKSAGGGGGGGAGGGGGGGGGSSSGGGSPQSYEELQTQRVMANVRERQRTQSLNEAFAALRKIIPTLPSDKLSKIQTLKLAARYIDFLYQVLQSDELDSKMASCSYVAHERLSYAFSVWRMEGAWSMSASH
# partner: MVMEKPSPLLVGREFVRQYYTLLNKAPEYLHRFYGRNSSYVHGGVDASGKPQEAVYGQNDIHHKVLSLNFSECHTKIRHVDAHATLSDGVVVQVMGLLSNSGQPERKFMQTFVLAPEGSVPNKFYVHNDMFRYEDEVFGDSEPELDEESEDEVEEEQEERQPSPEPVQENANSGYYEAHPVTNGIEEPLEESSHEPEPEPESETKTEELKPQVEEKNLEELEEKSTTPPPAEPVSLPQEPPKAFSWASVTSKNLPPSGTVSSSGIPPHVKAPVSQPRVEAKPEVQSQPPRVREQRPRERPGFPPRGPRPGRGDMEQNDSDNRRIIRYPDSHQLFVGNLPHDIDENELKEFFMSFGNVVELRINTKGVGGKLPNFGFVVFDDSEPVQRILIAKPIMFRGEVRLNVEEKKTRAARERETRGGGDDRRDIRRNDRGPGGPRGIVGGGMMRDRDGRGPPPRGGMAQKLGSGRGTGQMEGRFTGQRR
# Variants of: B1
# Conditions: with G3BP2, Q9UN86
row,effect of a mutation on the interaction,Variant
1,decreasing interaction strength,MMQDVSSSPVSPADDSLSNSEEEPDRQQPASGKRGARKRRSSRRSAGGSAGPGGATGGGIGGGDEPGSPAQGKRGKKSAGGGGGGGAGGGGGGGGGSSSGGGSPQSEEELQTQRVMANVRERQRTQSLNEAFAALRKIIPTLPSDKLSKIQTLKLAARYIDFLYQVLQSDELDSKMASCSYVAHERLSYAFSVWRMEGAWSMSASH [Y107E]
